Results from the nanobody polyreactivity screen of Harvey et al. (2022).

Assay: yeast display, Sf9 membrane polyspecificity reagent, FACS + sequencing; frameworks hold sequencing errors
Method in brief: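 In a synthetic yeast display library (Saccharomyces cerevisiae BJ5465), nanobody expression was induced with galactose for 36–48 hours. FACS gates were set low and high (top ~1%) using anti-HA fluorescence for expression and streptavidin fluorescence for binding of the Sf9 membrane reagent. Each polyreactivity label is drawn from the gate of origin.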
For “QVQLVESGGGLVQAGGSLRLSCAASGSIFNGYAMGWYRQAPGKERELVAAISRRGGSTYYADSVKGRFTISRVNAKNTVYLQMISLKPEDTAVYYCAADPRRPLSPQLSDYWGQGTQVTVSS”, the “polyreactivity (PSR sort gate)” value was “high polyreactivity”.
For “QVQLVESGGGLVQAGGSLRLTCAASGSTFTAYAMGWYRQAPGKDLELVDAINWSGGTTYYADSVKGRFTISRDNAKNTVYLQMNSLKPEDTAVYYCPVDGNFFGEVRPYDYWGQGTQVTLSS”, the “polyreactivity (PSR sort gate)” value was “low polyreactivity”.
With “QVQLVESGGGLVQAGGSLRLSCAASGFTFRYNAMGWYRQAPGKKGSWVAAISRTGGSTYYADSVKGRFTISRDNAKNTVYLQMNSLKPEDTAVYYCARAPEGTGGKYGYWGQGTQVTVSS” the “polyreactivity (PSR sort gate)” value was “high polyreactivity”.
For “QVHLVESGGGLVQAGGSLRLSCAASGRTFFWYVMGWYRQAPGKERELVATISYGGITYYADSVKGRFTISRDNAKNTVYLQMNSLKPEDTAVYYCAARRSLYYSTVKFDGYYYWGQGTQVTVSS”, the “polyreactivity (PSR sort gate)” value was “high polyreactivity”.
For “QVQLVESGGGLVQAGGSLRLSCAASGSIFPLYAMGWYRQAPGKERELVADITVSGGSTYYADSVKGRFTISRDNAKNTVYLQMNSLKPEDTAVYYCAKDNGPWFAYDYWGQGTQVTVSS”, the “polyreactivity (PSR sort gate)” value was “low polyreactivity”.
With “QVQLVESGGGLVQAGGSLRLSCAASGSIFEWYAMGWYRQAPGKERELVATITGSGGSTYYADSVKGRFTISRDNAKNTVYLQMNSLKPEDTAVYYCAAVPPPGGLDYWGQGTQVTVSS” the “polyreactivity (PSR sort gate)” value was “high polyreactivity”.
With “QVQLVESGGGLVQAGGSLRLSCAASGSIFKSYAMGWYRQAPGKERELVAVISDSGSTYYADSVKGRFTISRDNAKNTVYLQMNSLKPEDTAVYYCRCRGRRNEYWGQGTQVTVSS” the “polyreactivity (PSR sort gate)” value was “high polyreactivity”.
With “QVQLVESGGGLVQAGGSLRLSCAASGSIFYGNAMGWYRQAPGKERELVAAISKRGGSTYYADSVKGRFTISRDNAKNTVYLQMNSLKPEDTAVYYCAKATAGHTEYYSWGQGTQVTVSS” the “polyreactivity (PSR sort gate)” value was “high polyreactivity”.
For “QVQLVESGGGLVQAGGSLRLSCASSGYTFTVNAMGWYRQAPGKERELVAAISGSGGSTYYADSVKGRFTISRDNAKNTVYLQMNSLKPEDTAVYYCAADYWYYYWPLDYWGQGTQVTVSS”, the “polyreactivity (PSR sort gate)” value was “high polyreactivity”.
In the case of “QVQLVESGGGLVQAGGSLRLSCAASGFIFAYYVMGWYRQAPGKERELVAAISRGGGSTYYADSVKGRFTISRDNAKNTVYLQMNSLKPEDTAVYYCATYSHALRYDYWGQGTQVTVSS”, the “polyreactivity (PSR sort gate)” value is reported as “high polyreactivity”.
In the case of “QVQLVESGGGLVQAGGSLRLSCAASGRIFQYNAMGWYRQAPGKEREFVAAIRRGGGSTYYADSVKGRFTISRDNAKNTVYLQMNSLKPEDTAVYYCAARRKRVSFYPEYDYWGQGTQVTVSS”, the “polyreactivity (PSR sort gate)” value is reported as “low polyreactivity”.
In the case of “QVQLVESWGGLVQSGGSLRLICAASGSTNQYNAMGWYRQAPGKERELVAAISLSGATTYYADSVKGRCTISRDPAKNTVYLQMNIQKPEDTSVYYCAADFGWFYDCVAVWFIRILGDYWGQGTQVTVSS”, the “polyreactivity (PSR sort gate)” value is reported as “low polyreactivity”.
With “QVQLEESGGGLVQAGGILRLSCAASGSMFVAYTMGWYRQEPGKERELVAAISRGGSTNYADSVKGRFTISRDNAKTTVYLQMNSLKPEDTAVYYCAAKVWDGQLLYYWGQGTQVTVSS” the “polyreactivity (PSR sort gate)” value was “low polyreactivity”.
With “QVQLVESGGGLVQAGGSLSLSCAASGFTFSVYVLGWYRQAPGKERELVAAISSGGDTTYADSVKGRFTISRDNAKNTVYLQMNSLNPVDTAVYYCAADPGYYSWGSSQDDYWGQGTQVTVSS” the “polyreactivity (PSR sort gate)” value was “low polyreactivity”.
For “QVQLVESGGGLVQAGGSLRLSCAASGRTFSYYAMGWYRPAPGKERELVARITYRGGRTYYADSVKGRFTISRDNAKNTVYLQMNSLKPEDTAVYYCATTSWRYGYDYWGQGTQVTVSS”, the “polyreactivity (PSR sort gate)” value was “high polyreactivity”.
In the case of “QVQLVESGGGLVQAGGSLRLSCAASGITLRYYTMGWYRQPPGKERELVADISYRGGSTTYADSVKGRFTISRDNAKNTVYLQMNSLKPEDTAVYYCNARKRTFPSRSIGGDYWGQGTQVTVSS”, the “polyreactivity (PSR sort gate)” value is reported as “high polyreactivity”.
In the case of “QVQLVESGGGLVQAGGSLRLSCAASGFTFRYYAMGWYRQAPGKERELVAGISWSGSRTYYADSVKGRFTISRDNAKNTVYLQMNSLKPEDTAVYYCAKVNSYGPVPDRYDYWGQGTQVTVSS”, the “polyreactivity (PSR sort gate)” value is reported as “high polyreactivity”.
In the case of “QVQLVESGGGLVQAGGSLRLSCAASGSIFRPYAMGWYRQAPGKERELVAAITSGGRTNYADSVKGRFTISRDNAKNTVYLQMNSLKPEDTAVYYCAKTGSYAKIRPNNDYWGQGTQVTVSS”, the “polyreactivity (PSR sort gate)” value is reported as “low polyreactivity”.
For “QVQLVESGGGLVQAGGSLRLSCAASGRIDHNAMDWYRQAPGKERELVAAITWSGGGTYYADSVKGRFTISRDNAKNTVYLQMNSLKPEDTAVYYCNVRRAFSGWRGYDYWGQGTQVTVSS”, the “polyreactivity (PSR sort gate)” value was “high polyreactivity”.
In the case of “QVLLVESGGGLVQAGGSLRLSCAASGLTFVYVMGWYRQAPGKERELVAGISYSAGRTYYADSVKGRFTISRDNAKNTVYLQMNSLKPEDTAVYYCAATKRGRPQRGYWGQGTQVTVSS”, the “polyreactivity (PSR sort gate)” value is reported as “high polyreactivity”.
With “QFQLEESGGGLVQAGGSLRLSCAASGPIFSYNAMGLSRQATGKERELVARINWSSGRTYYADSVKGRFTISRDNAKNTVYLQMNSLKPEDTAVYYCNRVSRGPVGGYYWGQGTQVTESS” the “polyreactivity (PSR sort gate)” value was “high polyreactivity”.
With “QVQLVESGGGLVQAGGSIRLSCSASGNIFSDNAMGWYRQAPGKERELGAAITSGGSTNYADSVNGRFTISRDNAKNTVYLQMNSLKPEDTAVYYCAADRGFYPSLWDYDYWGQGTQVTVSS” the “polyreactivity (PSR sort gate)” value was “low polyreactivity”.
For “QVQLVESGGGLVQAGGSLRLSCAASGRIFYRYAMGWYRQAPGKERELVAAISTSGARTYYADSVKGRFTISRDNAKIYVYLQMNSLKPVDTAVYYCAATATVSKFGYWGQGTQVTVSS”, the “polyreactivity (PSR sort gate)” value was “low polyreactivity”.
With “QVQLVESGGGLVQAGGSLRLSCAASGSIYYYAMGWYRQAPGKERELVAVITSRGGSTNYADSVKGRFTISRDNAKNTVYLQMNSLKPQDTAVYYCNADYYRYYSITYGGDYWGQGTQVTVSS” the “polyreactivity (PSR sort gate)” value was “high polyreactivity”.
In the case of “QVQLVESGGGLVQAGGSLRLSCAASGITFDKNTMGWYRQAPGKERELVAAISARGGSTYYADSVKGRFTISRDNAKYTVYLQMNSLKPEDTAVYYCAATRSYSYRTVYRRKYNYWGQGTQVTVSS”, the “polyreactivity (PSR sort gate)” value is reported as “high polyreactivity”.
In the case of “QVQLVESGGVLVQAGGSLRLSCAASGSIFVYYGMGWYRQAPGKEREFVAAIWTGGSTYYADSVKGRFTISRDNAKNTVYLQMNSLKPEDTAVYYCAADRRGSHYYRYKYGYWGQGTQVTVSS”, the “polyreactivity (PSR sort gate)” value is reported as “high polyreactivity”.
With “QVQLVESGGGLVQRGCSLRLSCAASGSTFGYYTMGWYRQAPGKERELVSAISYSGGRTFYADSVKGRFTISRDNAKNTVYFQMISLKPEDHAVYYCNTRYIPSYLSHLDYWGQGTQVTVSS” the “polyreactivity (PSR sort gate)” value was “high polyreactivity”.
In the case of “QVQLVESGGGLVQAGGSLRLSCAASGRIFKNYVMGWYRQAPGKERELVAAITYSGGSTRYADSVKGRFTISRDNAKNTVYLQMNSLKPEDTAVYYCAASRTYYRTYTFYYWGQGTQVTVSS”, the “polyreactivity (PSR sort gate)” value is reported as “high polyreactivity”.
In the case of “QVQLVESGGGLVQAGGSLRLSCAASGSIHFEYMGWYRQAPGKERELVAAITIRDGGTYYADSVKGRFTISRDNAKNTVYLQMNSLKPEDTAVYYCNADFSGGWRYDYWGQGTQVTVSS”, the “polyreactivity (PSR sort gate)” value is reported as “low polyreactivity”.
For “QVQLVESGGGLVQAGGRLRISCAASGRTFGRYTMGWYRQAPGKERELVASISNTARTNYADSVKGRFTISRDNAKNTVYLQMNSLKPEDTAVYYCAAERAILSSDKQSLWRFDYWGQGTQVTVSS”, the “polyreactivity (PSR sort gate)” value was “low polyreactivity”.
With “QVQLVESGGGLVQAGGSLRLSCAASGFIFDLYAMGWSRQAPGKERELVAVISFDGGSTYYADSVKGRFTISRDNAKNTVYLQMNSLKPEDTAVYYCNTYAGLVSPSDLYDYWGQGTQVTVSS” the “polyreactivity (PSR sort gate)” value was “low polyreactivity”.
With “QVQLQGSGGGLVQAGGSLRLSCAASGYIFQNVPMGWNRQAPGKERELVAGIDNGTSTNYADSVNGRFTISRDNAKNTVYLQMNSLNPVDTAVYYCAAAGQADDTLGYWGQGTQVTVSS” the “polyreactivity (PSR sort gate)” value was “low polyreactivity”.
With “QVQLVESGGGLVQAGGSLRLSCAASGNIFSWYAMGWYRQAPGKERELVAAITSGGRTYYADSVKGRFTISRDNAKNTVYLQMNSLKPEDTAVYYCNAVSRLYNRRDYWGQGTQVTVSS” the “polyreactivity (PSR sort gate)” value was “high polyreactivity”.
With “QVQLVESGGGLVQAGGSLRLSCAASGRIFGGNALGWYRQAPGYARALVAAISWIGGTTYYADSVKGRFTISRDNAKNTVYLQMNSLKPEDTAVYYCAAYRYRPHVHRYYRYDYWGQGTQVTVSS” the “polyreactivity (PSR sort gate)” value was “high polyreactivity”.
In the case of “QVQLVESGGGLVQAGGSLRLSCAASGFTFRRYALGWYRQAPGKERELVAGITGRGGSTYYADSVKGRFTISRDNAKNTVYLQMNSLKPEDTAVYYCNKPRAARGYMTGQLDYWGQGTQVTVSS”, the “polyreactivity (PSR sort gate)” value is reported as “high polyreactivity”.
For “QDQLVESGGGLVQAGGSLRLSCAASGSTFYRYAMGRSRQAPGTERELVAAISWRGGSTYYADSVKGRFTISRDNAKNSVYLQMNSLKPEDTAVYYCNADWYPYDQMYYWGQGTQVTVSS”, the “polyreactivity (PSR sort gate)” value was “low polyreactivity”.
In the case of “QVQLVESGGGLVQAGGSLRLICAASGRTFFPYAMGWYRQAPGKEREFFAAISTRGGSTYYADSVKGRFTISRDNAKNTVYLQMNSLKPEDTAVYYCAARFHKKGYWVYRMDYWGQGTQVTVSS”, the “polyreactivity (PSR sort gate)” value is reported as “high polyreactivity”.
For “QVQLVDSGGGLVQAGGSLRLSCSASGIIFRYYTMVWYRQDPGKERELVASISRSGGNTYYADSVKGRFTISRDNAMNTVYLQMNSLKPEDTAVYYCAARRHQKYQESNYWGQGTQVTVSS”, the “polyreactivity (PSR sort gate)” value was “high polyreactivity”.
For “QDQLVESGGGLVQAGGSLRLSCAASGFIFGRYTMGWYRQAPWKERELVAAISGSDVSTYYADSVKGRFTISRDNAKNTVYIQMNSLKPEDTAVYYCAADAPWAYYEYDYWGQGTQVTVSS”, the “polyreactivity (PSR sort gate)” value was “low polyreactivity”.
With “QVQLVESGGGLVQAGGSLRLSCDASGFIFDHNAMGWYRQAPGKERELVAAISWGYGSTYYADSVKGRFTISRDNAKNTVYLQMNRLKTEDTAVYYCAARAVRYYAWVRGGCTSFDYWGQGTQVTVSS” the “polyreactivity (PSR sort gate)” value was “high polyreactivity”.
